Results: article PMC12126530, “A low-complexity linker as a driver of intra- and intermolecular interactions in DNAJB chaperones” (Nature Communications, 2025)

Experiments:
Conditions in all cases: both partners purified
[1] = molecular target: T1, Full-length Hsc70-T204A (ATPase deficient mutant) (human, UniProt P11142 1-646, T204A); test: fluorescence polarisation; direct binding: Hsc70-T204A titrated into 300 nM fluorescein-labelled DNAJB6 JD; 25 °C; 20 mM HEPES pH 7.0, 50 mM KCl, 5 mM MgCl2, 5 mM ATP; four-point logistic fit, 1:1 model
T1 construct: Hsc70, the constitutively expressed cytosolic form of human Hsp70; full length with the ATPase-deficient mutation T204A; source: pET-15b vector, expression at 25 °C overnight, purified (StrepTactin, TEV cleavage, Superdex 200)

[2] = molecular target: T1, Full-length Hsc70-T204A (ATPase …); test: NMR 15N-CPMG relaxation dispersion and exchange-induced shifts; 15N-labelled JDP observed, unlabelled Hsc70-T204A added to a molar ratio of 0.1 (DNAJB6 JD-GF 200 uM, DNAJB6 JD 350 uM, DNAJB1 300 uM); 25 °C; 20 mM HEPES pH 7.0, 50 mM KCl, 2.5 mM MgCl2; ATP-regenerating system with 2.5 mM ATP; fit to a two-state binding model
[3] = molecular target: T2, Full-length Hsc70-T204A (ATPase deficient mutant) (human, UniProt P11142 1-646, T204A); test: NMR 15N-CPMG relaxation dispersion with exchange-induced shifts; 15N-labelled JDP (DNAJB6 JD-GF 200 μM, DNAJB6 JD 350 μM, DNAJB1 300 μM) with unlabelled Hsc70-T204A at a molar ratio of 0.1, ATP-regenerating system, 20 mM HEPES pH 7.0, 50 mM KCl, 2.5 mM MgCl2, 25 °C, 600, 800 and 950 MHz; fit to a 2-state model; kex = kon app + koff
T2 construct: Hsc70, the constitutively expressed cytosolic form of human Hsp70, full length, with T204A; 5 mM ATP in fluorescence polarisation; also called hydrolysis deficient Hsc70 mutant T204A; source: pET-15b vector, expressed at 25 °C overnight, purified (StrepTactin, TEV cleavage, Superdex 200)

Sequence of DNAJB6 JD (O75190 2-69): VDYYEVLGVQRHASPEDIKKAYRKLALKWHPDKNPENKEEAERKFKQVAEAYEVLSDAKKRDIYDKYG
Sequence of DNAJB1 JD-GF (chain): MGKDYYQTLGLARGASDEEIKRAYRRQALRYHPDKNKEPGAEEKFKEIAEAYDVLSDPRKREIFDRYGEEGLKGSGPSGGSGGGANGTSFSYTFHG

Kd [1]	Kd [2]	koff [2]	kon [2]	Kd [3]	Binder
18 ± 6.5 µM	–	–	–	–	Fluorescently labelled DNAJB6 JD (with an additional C-terminal GSSC sequence) (domain or fragment, Fluorescein-5-Maleimide on the C-terminal cysteine, DNAJB6 J-domain construct; not shown: His-tag, N-terminal, cleaved) not shown
–	3.4 ± 1.1 µM	2740 ± 51 s⁻¹	8e+08 M⁻¹ s⁻¹	–	DNAJB6 JD (domain or fragment, DNAJB6, construct truncated immediately after the J-domain; 15N-labelled for NMR; also called isolated JD of DNAJB6; DNAJB6 J-domain; source: E. coli BL21(DE3), purified (HisTrap, TEV cleavage, C18 reverse phase HPLC); not shown: His-tag, N-terminal, cleaved) not shown
–	288 ± 13 µM	1700 ± 40 s⁻¹	5.91e+06 M⁻¹ s⁻¹	–	DNAJB1 JD-GF (domain or fragment, 15N-labelled; limits by convention: ends just before helix 5 (DNAJB6 helix 5 is 96-104, and DNAJB6 F91 aligns with DNAJB1 Y92, giving about 97-105); start as in PDB 6Z5N) not shown [DNAJB1 JD-GF, listing 2 of 2 here]

More lines, now with the values behind:

Binder	Kd [1]	Kd [2]	koff [2]	kon [2]	Kd [3]
DNAJB1 JD (domain or fragment, DNAJB1, construct truncated immediately after the J-domain; also called DNAJB1 1-67; JD of DNAJB1; source: E. coli BL21(DE3), purified (HisTrap, TEV cleavage, C18 reverse phase HPLC); not shown: His-tag, N-terminal, cleaved) not shown	–	~450 µM	–	–	–
DNAJB1 JD-GF (domain or fragment, 15N-labelled; limits by convention: ends just before helix 5 (DNAJB6 helix 5 is 96-104, and DNAJB6 F91 aligns with DNAJB1 Y92, giving about 97-105); start as in PDB 6Z5N) not shown [DNAJB1 JD-GF, listing 1 of 2 here]	–	–	–	–	~300 µM
